Laboratory results from doi:10.1101/856021.
Where two headings read alike, the source gives them in different places. Each block holds one molecule with its values, some of them ahead of it.

Experiments:
Experiment in all cases: ITC
[1] = target: dP75 IBD-containing C-terminus region (residues 209-445) (Drosophila)
[2] = target: PWWP domain of dP75 (residues 8-91) (Drosophila)
[3] = target: dP75 IBD-containing C-terminus region (residues 209-445) (Drosophila); remark: listed apart in the source

Kd [1]: 0.8 µM
Molecule: Jil-1 peptide from the proximal site (…; residues 984-1004)

Kd [2]: > 500 µM
Molecule: H3K36me3 peptide

Kd [3]: 120 µM
Molecule: KREENFYGFSK [Jil-1 peptide at the distal site (…; residues 1102-1112)]
